# Results: the nanobody polyreactivity screen of Harvey et al. (2022)
# Assay: yeast display, Sf9 membrane polyspecificity reagent, FACS + sequencing; frameworks hold sequencing errors
# Method in brief: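 Galactose induction of a Saccharomyces cerevisiae BJ5465 synthetic nanobody display library ran 36–48 hours. The cells were then stained for 1 hour at 4 °C with 10% biotinylated, detergent-solubilized Sf9 membrane reagent, pulled down on streptavidin microbeads and FACS-sorted into low and high (top ~1%) gates on expression and reagent-binding fluorescence. Labels for polyreactivity follow the gate of origin.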
row,Sequence,polyreactivity (PSR sort gate)
1,QVQLVDSGGGLVQAGCSLRLSCPASGGTFGYYAMGWYRQAPGKERELVAGINYSGGRTYYADSVKGRFTISRDNAMNTVYLKMDSLKPEDTAVYYCAAQAYVGYRGYDYWVQGTQVTVSS,high polyreactivity
2,QVQLVESGGGLVQAGGSLRLSCAASGRIFSYYAMGWYRQAPGKERELVAAISYSTTSTYYADSVKGRFTISRDNAKNTVYLQMNSLKPEDTAVYYCAAEFQPGSYTPTYDYWGQGTQVTVSS,low polyreactivity
3,QVQLVESAGGLVQAGGSLRLSCAPSGSIFVAYAMGGYLQAPGKERELVAAISWRSGSTYYADSVKGRFTISRDNAKNTVYLQMNSLKPEDTAVYYSAAKQDQDYYWGQGTQVTVSS,low polyreactivity
4,QVQLVESGGGLVQAGGSLRLSCAASGIIFDYNAMGWYRQAPGKERELVAAISGRSGRTYYADSVKGRFTISRDNAMNTVYLQMNSLKPEDTAVYYCAARWYAGGNYWGQGTQVTVSS,high polyreactivity
5,QVQLVESGGGLVQAGGSLRLSCAASGRIFPGNAMGWYRQAPGKEREFVAAINTRGGITYYADSVKGRFTISRDNAKNTVYLQMNSLKPEDTAVYYCNKRWSIRSGYPYTYGIYDYWGQGTQVTVSS,low polyreactivity
6,QVQLVESGGGLVQAGGSLRLSCAASGSIFGNAMGWYRQAPGKEREFVAAISSSGSSTYYADSVKGRFTISRDNAKNTVYLQMNSLKPEDTAVYYCAKRRRSAAPKYDYWGQGTQVTVSS,high polyreactivity
7,QVQLVESGGGLVQAGGSLRLICAASGSIFVYNAMGWYRQAPGKERELVAAISQRGGSTYYADSVKGRFTISRDNAKNTVYLQMNSLKPEDTAVYYCAAGPGDSGDDYWGQGTQVTVSS,low polyreactivity
8,QVQLVESGGGLVQAAGSLRLSSAASGRTFVGYSMGWYRQAPGKERELVAAIHWSVGITYYADSVKGRFTISRDNAKNTVYLQMNSLKPEDTAVYYCAADGYDEPDLLVYEPWREDEYWGQGTQVTVSA,low polyreactivity
9,QVQLVESGGGLVQAGGSLRLSCAASGSPSQPYAMGWYRQAPGKVRELVASITNGGITYYADSVKGRFPISRDNANNTVELQMNSLKPEDTAVYYCARTGPSAYWEFDYWGQGTQVTVSS,low polyreactivity
10,QVQLVESGGGLVQAGGSLRLSCAASGRIFGPNAMGWYRPAPGKERELVAAISTRDGSTSYADSVKGRFTISRDNAKNTVYLQMNSLKPEDTAVYYCAKRWPYWYRVTQYDNVDYWGQGTQVTVSS,low polyreactivity
11,QVQLVESGGGLVQAGGSLRLSCAASGNTFVGYTMGWYRQAPGKEWELVAAISWNGGTTYYADSVKGRFTISRDNAKNTVYLQMNSLKPEDTAVYYCNTRWYTRRFDYWGQGTQVTVSS,high polyreactivity
12,QVQLVESGGGLVQAGGSLRLSCAASGFTFTRYAMGWYRQAPGKERELVAAISSCGDTYYADSVKGRFTISRDNAKNTVYLQMNSLKPEDTAVYYCAADQSSLDYGNDYWGQGTQVTVSS,low polyreactivity
13,QVQLVESGGGLVQAGCSLRLSCAATGFIFKRNAMGWYRQAPGKERELVAAITKSGVNSYYADSVKGRFTISRDNAKNTVYLLMNSLKPEDTAVYYCAARGNRKQAWYKYNYCGQGTQVTVSS,high polyreactivity
14,QVQLVESGGGLVQAGGSLRLSCAAYGIIFYYYAMGWYRQAPGKERELVAAITGTGSRTYYADSVKGRFTISRDNAKNTVYLQMNSLKPEDTAVYYCNARSFATGSEVPARGYWGQGTQVTVSS,high polyreactivity
15,QVQLVESGGGLVQAGGSLRLSCSASGSTFSDNVMGWYRQAPGKERELVAGITRSGGRTYYADSVKGRFTISRDNAKNTVYLQMNSLKPEDTAVYYCAAASSGEYGYWGQGTQVTVSS,low polyreactivity
16,QVQLVESGGGLVQAGGSLRLSCAASGSTLATYTMGWYRQAPGKERELVAAISFGGSTYYAYSVKGRFTISRDNAKNTVYLQMNSLKPEDTAVYYCAVYGDSYWGAYYYSDGYWGQGTQVTVSS,low polyreactivity

row,Sequence,polyreactivity (PSR sort gate)
1,QVQLVESGGGLVQAGGSLRLSCAASGSILGYYAMGWYRQAPGKERELVAAISSGGSTNYADSVKGRFTISRDNAKNTVYLQMNSLKPEDTAVYYCAAGVTWPYRYVWYDYWGQGTQVTVSS,low polyreactivity
2,QVQLVESGGCLVQAGGSLRLSCAASGRTFRYYAMGWYRQAPGTERELVATITGSGGSTYYADSVKGRFTISRDNAKNTVYLQMTSLKPEDTAVYYCNARKVRYPYRWYDYWGQGTQVTVSS,high polyreactivity
3,QVQLVESGGGLVQAGGSLRLSCAASGRNFSFYAMGWYRQAPGQERELVAAITYTDGSTYADSVKGRFTISRDNAKNTVYLQMNSLKPDDTAVYYFATRYRWTPYDYWGQGTQVTVSS,low polyreactivity
4,QVQLVESGGGLVQAGGSLRLSCAASGSIFRYYAMGWYRQAPRKERELVAAISSNGGSTSYADSVKGRFTISRDNAKNTVYLQMNSLIPEYTAVYYCNTQFRYPQKYDYWGQGTQVTVSS,high polyreactivity
5,QVQLVESGGGLVQAGGSLRLICDASGRTFTDNAMGLYRQAPGKERELVAAISSSGDFYAESVKGRFTISRDNAQNTVYLQMNSLKPEDTAVYYCAARVWRYYYQSRFYYWGQGTQVTVSS,high polyreactivity
6,QVQHVESGGGLVQAGGSLRLSCSASGRTFNFYTMGWYRQAPGKEREFVAGITSTGGSTDYADSVKGRFTISRDNAKNTVYLQMNSLKPEDTAVYYCNALRRWWEPYWTYNYWGQGTQVTVSS,high polyreactivity
7,QVQLVESGGGLVQAGGSLRLSCAASGSIFRSYAMGWYRQAPGKERELVAAISSSGGRTYYADSVKGRFTISRDNAKNTVYLQMNSLKPEDTAVYYCAAYGGGGYKYDYWGQGTQVTVSS,low polyreactivity
8,QVHLVESGGGLVQAGGSLRLSGAASGSTFLEYARGWYRQAPGKERELVADISSGGGTHYADSVKGRFTISRDNAKNTVYLQMNSLKPDDTAVYYCNRDISGSSGGELDYWGQGSQVTVSS,low polyreactivity
9,QVLLQESGGGLVQAGGSLRLSCAASGNIFSAGGMGWYRQAPVNERELVAGIGTGTSTNYADSVKGRFTISRDNAKNTVYLQMNILKPEDTAVYYCAAAYYSGLSHWYWGQGTQVTVSS,low polyreactivity
10,QVQLVESGGGLVQAGGSLRLSCAASGITFNSYTMGWYRQAPGKERELVAAISDNGGRTFYADSVKGRFTISRDNAKNTVYLQMNSLKPEDTAVYYCAAVVYSEYYYWGQGTQVTVSS,low polyreactivity
11,QVQLVESVGGLVQAGGSLRLSCAASGRIFLWYAMGWYRQAPGKERELVAAISGSGGSTSYADSVKGRITISRDNAKNTVYLQMNSLKPEDTAVYYCAALYRTWARYKVYYWGQGTQVTVSS,high polyreactivity
12,QVQLVESGGGLVQAGGSLRLSCAASGRIFYANAMGWYRQAPGKEWEFVASITYGGGSTYYADSVKGRFTISRDNAKNTVYLQMNSLKPEDTAVYYCAAGYYAQYEDYIRYDYWGQGTQVTVSS,low polyreactivity
13,QVQLVESGGGLVQAGGRLRLICAASGRTFVVNAMGWYRQAPGQERELVAAITRRAGITYYADSVKGRFTISRDNAKNTVYLQMNSLKPEDTAVYYCAADRSYFPDTRTTYGYNYWGQGTQVTVSS,low polyreactivity
14,QVQLVESGGGLVQAGGSLRLSCAASGRTFNGNAMGWYRQAPGKERELVAGISTSDGSTYYADSVKGRFTISRDNAKNTVYLQMNSLKPVDTAVYDCAAYSHHQFSSSEYYYWGQGTQLTVSS,low polyreactivity
15,QVQHVESGGGLVQAGGSLRLSCAASGSTFWYYDMGWYRQAPGKEMELVAAISGSGGRTYYADSVKGRFTISRDNAKNTVYLQMNSLKPEDTAVYYCAADDYWSADFKYNYWGQGTQVTVSS,low polyreactivity
16,QVQLVESGGGLVQAGGSLRLSCAASGITFVGNAMGWYRQAPGKERELVAAITSSGSTHYADSVKGRFTISRDNAKNTVYLQMNSLKPEDTAVYYCAAVTRFSGGLYYYWGQGTQVTVSS,high polyreactivity
